Test results from the nanobody polyreactivity screen of Harvey et al. (2022).

Assay: yeast display, Sf9 membrane polyspecificity reagent, FACS + sequencing; frameworks hold sequencing errors
Procedure, shortened: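 Nanobodies from a synthetic yeast display library (Saccharomyces cerevisiae BJ5465), induced 36–48 hours with galactose, were stained 1 hour at 4 °C with 10% biotinylated, detergent-solubilized Sf9 membrane reagent, enriched on streptavidin microbeads, then FACS-sorted. Anti-HA (expression) and streptavidin (reagent binding) fluorescence set low and high (top ~1%) gates. Polyreactivity labels come from the gate of origin. Genes were colony-PCR amplified, MiSeq 2 × 250 sequenced and filtered by CDR length.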

Sequence | polyreactivity (PSR sort gate)
QVQLVESGGGLVQAGGRLRLTCAASGSIFEGYAMGWYRQAPGKERELGARITSDDDSTYYADSVKGRFTISRDNAKNSVYLQMKSLKPEDTAVYYCNAVYYWTSLAMDSWGQGTQVTVSS | low polyreactivity
QVQLVESGGGLVQAGGRLRLTCAPSGTIIYQYAMGFDRHAPGKERELVAASSTTGGPTYYADSVKGRFTISRDNAKKTVYLQMNSLKPEDTAVYYCAAEKYYGYDYWGQGTQVTVSS | high polyreactivity
QVQLVESGGGLVQAGGRLRVSCATSGRTFGKYAMGWYRQAPGKERELVATISRSGGSTYYADSVKGRFTISRDNAKNTVYLQMNSLNPVDNAVYYCNAVTSRYIWPPGLDRYHYWGQGTQVTVSS | high polyreactivity
QVQLVESGGGLVQAGGRLSLICAASGSIFPINAMGWYRQAPGKERELVADITSGGSTNYADSVKGRFTISRDNAKNTVYLQMNSLKPEDTAVYYCAADWRYWRWAFDYWGQGTQVTVSS | high polyreactivity
QVQLVESGGGLVQAGGSHGLSCAASGRTSEKNPMGWYRQAPGIERELVAGISWRGGSTYYADSVKGRFTISRDNAKNTVYLQMNSLKPEDTAFYYCARSGAFSGLDDSWGQGTQVTVSS | low polyreactivity
QVQLVESGGGLVQAGGSHRFSCGASGSTSTYYAMGCYRQAPGTERELVAAISSGGSTNYADSVKGRFTISRDNAKNTVYLKMNSLKPEETAVYYCATDSGDGEGDYWGQGTQVTVSS | low polyreactivity
QVQLVESGGGLVQAGGSHRLSCAASARIFYLYAMGWYRQAPGKERELVAAISRSGSSTYYADSVKGRFTISRDNPKNTVYLEMNSLKPEDTAVYYFADLRYRPVHQDHYDYWGQGTQVTVSS | high polyreactivity
QVQLVESGGGLVQAGGSHRLSCAASGFILAYYAMGWYRQAPGKERELVASINRSGGSTYYADSVKGRFTISRDNAKNTVYFQMNSLKPEDTAVHYCAHTNRGDGQWWYRYYYWGQGTQVTVSS | high polyreactivity
QVQLVESGGGLVQAGGSHRLSCAASGGTFNTNAMGWYRQAPGKERELVATIRGGVITTYADSVKGRFTISRDNAKNTVYLQMNSLKPEDTAVYYFNKDNAPYAVSSIFGARDYWGQGTQVTVSS | low polyreactivity
QVQLVESGGGLVQAGGSHRLSCAASGIIFPWYVMGWYRQAPGKERELVAAITQSGGSTFYADSLKGRFTISRDNAKNTVYLQMNCLKPEDTAVYYCHTEDFFKFPEMDSWGQGTQLTVSS | low polyreactivity
QVQLVESGGGLVQAGGSHRLSCAASGIIFSGNAMGWYRQAPGKERELVAAITRGGRTYYADSVKGRFTISRDNAKNTVYLQMNSLKPEDTAVYYCNKRYRYKYDYWGQGTQVTVSS | high polyreactivity
QVQLVESGGGLVQAGGSHRLSCAASGITFYGNAMGWYRQAPGKERELVAGITSGGNTYYADSVKGRFTISRDNAKNTVYLQMNSLKPEDTAVYYCAAGYFSYRSYYYYRYDYWGQGTQVTVSS | high polyreactivity
QVQLVESGGGLVQAGGSHRLSCAASGQTVYYYPMGWYRQAPGKEREVVASISTGGNTYYADSVKGRFTISRDNAKNTVYLQMNSLKPEDTAVYYCAAGLYSWSGFASYNSAYGYWGQGTQVTVSS | low polyreactivity
QVQLVESGGGLVQAGGSHRLSCAASGRIFAYNAMGWYRQAPGKERELVAAISSGGNTYYADSVKGRFTISRDNAKNTVYLQMNSLTPEDTAVYYCNAGVGWHRYYSNYDYWGQGTQVTVSS | low polyreactivity
QVQLVESGGGLVQAGGSHRLSCAASGRIFGCYTMGWYRQAPAKERELVAGITRRGGRTYYADSVKGRFTISRDTAKYTVYLQMNSLKPEDTAVYYCAVRSGVNFYYWGHGTQVTVSS | high polyreactivity
QVQLVESGGGLVQAGGSHRLSCAASGRIFQRNTMGWYRQAPGKERELVARINYSGGSTYYADSVKGRFTISRDNAKNTVYLQMNSLKPEDTAVYYCAARVWTWSIYYRAGLSSYDYWGQGTQVTVSS | low polyreactivity
QVQLVESGGGLVQAGGSHRLSCAASGRILVRYAMGCYRHAPGKERELVAAISRGGSTTYADSVKGRFTISRDNAKNTVYLQMNSLKPEDTAFYYCAAGRYPYNRDYWGQGTQVTVSS | high polyreactivity
QVQLVESGGGLVQAGGSHRLSCAASGRTFLTNAMGWYRQAPGKERELVAAIRWSGTSTYYADSVKGRFTISRDNAKNTVYLQMNSLKPEDTAVYYCAARKVYGSKYGYWGQGTQVTVSS | high polyreactivity
QVQLVESGGGLVQAGGSHRLSCAASGRTFRQYAMGWYRQAPGKERELVATISSGGSTYYADSVKGRFTISRDNAKNTVYLQMNSLKPEDTAVYYCAAPYWARKYWRKFGPFDYWGQGTQVTVSS | low polyreactivity
QVQLVESGGGLVQAGGSHRLSCAASGRTFWYYTMGWYRQAPGKERELVAAINWRGGTTYYADSVKGRFTISRDNAMNTVYLQMNSLKPEDTAVYYCAATHWAYSRVPYDYWGQGTQVTVSS | high polyreactivity

Sequence | polyreactivity (PSR sort gate)
QVQLVESGGGLVQAGGSHRLSCAASGRTLGGYAMGWSRQAPGKERELVAAISYSGGSTYYADSVKGRFTISRDNAKNTVYLQMNSLKAEFTAVYYCARDYSWYYYGSQLFAHDYWGQGTQVTVSS | low polyreactivity
QVQLVESGGGLVQAGGSHRLSCAASGRTYVYNAMGWYRQAPGKERELDAGITNGGSTNYADSVKGRFTISRDNAKNTVYLQMNSLKPEDTAVYYCAADSRVYPYYFGDFGYWGQGTQVTVSS | low polyreactivity
QVQLVESGGGLVQAGGSHRLSCAASGSIFALYAMGWYREAPGKEREFVAAISWNGGRTYYADSVKGRFTISRDNAKNTVYLQMNSLKPEDTAVYYCAARSWYAYDYWGQGTQVTVSS | high polyreactivity
QVQLVESGGGLVQAGGSHRLSCAASGSILSYYAMGWYRQAPGQEREFVAAIRTRGGSTYYADSVKGRFTISRDNAKNTVYLQMYSLKPEDTAVYYFAARTRPDRVRQGRYYYWGQGTQVTVSS | high polyreactivity
QVQLVESGGGLVQAGGSHRLSCAASGSTFAYYAMGWYRQAPGKERELVATISERGGTTYYADSVKGRFTLSRDNAKNTVYFQMNILKPEVTAVYYCAADHSGYWTYYYDYYYWGQGTQVNVSS | low polyreactivity
QVQLVESGGGLVQAGGSHRLSCAASGSTLTWYAMGWYRQAPWKEWELVDTISSSTGSTRYADSVKGRFTISRDNAKNSVYLRINSLKPDDTAVYYCAKAYALRYARGRARYDYDFWGQGTQVNVSS | low polyreactivity
QVQLVESGGGLVQAGGSHRLSCAASGSTSGINAMGWYRQAPGKERELVAAIRLSGGRTYYADSVKGRFTISRDNAKNTVYLQMNSLKPEDTAVYYCAARYPSRVGYYYLGQGTQVTVSS | high polyreactivity
QVQLVESGGGLVQAGGSHRLSCAASGSTVGRNAMGWYGQAPGKERELVAAITASGGTTYYADSVKGRFTISRDNAKNTVYLQMNSLKPEDTAVYYCARAGHFSFKYDYWGQGTQVTVSS | low polyreactivity
QVQLVESGGGLVQAGGSHRLSCAASGYIFDYNDMGWSRQAPGKERELVAAITYSRGSTYYADSVKGRFTISRDNAKNTVYLQMNSLQPEDTAVYYCAATFRSRGYSARRYYYWGQGTQVTVST | high polyreactivity
QVQLVESGGGLVQAGGSHRLSCAASRSIFPYNAKGWYRQAPGKATELVATISNSGGSTYYADSVKGRFTISRDTAMNTVYLQMNSLKPEDTAVYYCADDRSVYLPAPDPALDYWGQGTQLTVSS | low polyreactivity
QVQLVESGGGLVQAGGSHRLSCAAYGRIFYYYVMGWYRQAPGKERELVAVIDWSGGSTYYADSVKGRFTISRDNAKYTVYVQMNCLKPDDTAVYYCAKVWLNFSLAYEDYDYWGQGTQVNVSS | low polyreactivity
QVQLVESGGGLVQAGGSHRLSCASYGSIFRCYAKGWYRQAPGKERELVAGITRSGGSTYYADSVKGRFTISRDNAKNTVYLQLNRLKPEDTAVYYCNADLYRKRAWVRRDGSWGHGTQVTVSS | low polyreactivity
QVQLVESGGGLVQAGGSHRLSSAASGSIIPSYAMGWYRQAPGKERELVAAITTSGGNTFYADSVKGRFTISRDNAKNTVYLQMNSLKPEDTAVYYCAADYSPYTVEYDYWGQGTQVTVSS | low polyreactivity
QVQLVESGGGLVQAGGSHRLTCAASGITFTVNAMGWYRQAPRKERELVAAISNDGSTYYADSVKGRFTISRDYAKNTVYLQMNSLKPEDTAVYYCAADTWDDFGPYGYDYWGQGTQVTVSS | low polyreactivity
QVQLVESGGGLVQAGGSILLSCAASGFIFLYYAMGWYRQAPGKERELVADISRGADTKYADTVKGRFTISRDNAKNTVYLQMNSLKPEDTAVYYCATVITTFWFPYPGVELGYWGQGTQVNVSS | low polyreactivity
QVQLVESGGGLVQAGGSIRLSCAASGFIFFSNAMGWYRQAPGKERELVAVIDRATSTYYADSVKGRFTISRDNAKNTVYLQMNSLKPEDTAVYYCNADGEEVYDFNYFLSFKGDYWGQGTQVTVSS | low polyreactivity
QVQLVESGGGLVQAGGSIRLSCAASGFTFKGNVMGWYRQAPGKERELVAAISRSGGRTYYADSVKGRFTISRDNAKNTVYLQMNSLKPEDTAVYYCAAVVQSSEPVEYDYWGQGTQVTVSS | high polyreactivity
QVQLVESGGGLVQAGGSIRLSCAASGGTFKTYVMGWNRQAPVKERELVAAINTSGTSTYYADSVKGRFTISRDNAKIKVYLQMNSLKPEDTAVYYCATRYRYTYYWGQGTQVTVSS | high polyreactivity
QVQLVESGGGLVQAGGSIRLSCAASGINFYGNAMGWYRQAPGKETELVAAISWSGSSTYYADSVKGRFTISRDNAKNTVYFQMLSLKPEDTAVYYCKKATSSVRYLIYYYWGQGTQVTVSS | high polyreactivity
QVQLVESGGGLVQAGGSIRLSCAASGLTFRWYAMGWYRQAPGKESELVAAISSGGRTYYADSVKGRFTISRDNAKNTVYLLMNSLKPEDTAVYYSNKRTLDYGFGSYGREYWGQGTQVTVSS | high polyreactivity
